This note sets out measurements from patent US20230095979A1 (NANTONG YICHEN BIOPHARMA, published 2023).

The target in one assay is T1, IL1β WT with 6xHis tag (human, UniProt P01584 117-269).
T1 construct: Expressed in E. coli from pET28a with a C-terminal 6xHis tag; about 19 kDa on SDS-PAGE; also called WT IL1β; wild-type IL1β
Kind of assay: monoclonal phage panning on coated antigen; ratio of output CFU with and without UV crosslinking.

Assay [1] concerns the target IL1β 64pBpa mutant (human) (UniProt P01584). Briefly: monoclonal phage panning on coated antigen, UV 365 nm, competitive/low-pH washes, trypsin release, colony count.
Assay [2] shares this target. Kind of assay: monoclonal phage panning on coated antigen; ratio of output CFU with and without UV crosslinking.
Assay [3] has the same target. Briefly: monoclonal phage panning on coated antigen, no UV, competitive/low-pH washes, trypsin release, colony count.
In the next assay the target is T2, hC5a with 6xHis tag (human, UniProt P01031 678-751).
T2 construct: also called WT hC5a; WT-hC5a
T2 sequence: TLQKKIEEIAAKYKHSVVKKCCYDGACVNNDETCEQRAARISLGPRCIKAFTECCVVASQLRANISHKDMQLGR
Kind of assay: monoclonal phage panning on coated antigen; ratio of output CFU with and without UV crosslinking.

In another assay the target is T3, Val18pBpa mutant of hC5a (human, UniProt P01031 678-751, not fully specified; p-benzoyl-L-phenylalanine (pBpa) at 18).
T3 construct: X stands for pBpa
T3 chain: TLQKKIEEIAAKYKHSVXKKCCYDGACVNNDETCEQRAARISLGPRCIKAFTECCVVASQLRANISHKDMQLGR
Described as above.

Description for IL1β WT with 6xHis tag: Colony Forming Unit (CFU) was counted, and finally the positive clones(hits) were picked.
After elution, the output CFUs of UV and non-UV-treated groups were counted and compared.

B1: 64UV63 phage (scFv)
scFv: ELTLTQSPAFMSATPGDKVNISCKGSQDIDDNMNWYQQKPGEAIIFIIQEATTLVPGIPPRFSGSGYGTDFTLTINNIESEDAAYYFCLQHDNFPPYTFGQGTKLEIKGGSSRSSSSGGGGSGGGGQVQLQESGGGLVQPGGSLRLSCAASGFTFSSYEMNWVRQAPGKGLEWVSYISSSGSTIYYADSVKGRFTISRDNAKNSLYLQMNSLRAEDTAVYYCARDLGGFDPWGQGTLVTASS
notes: also called 64UV63 scFv
For B1, the “UV-treated output CFU/Non-UV-treated output CFU” value with IL1β WT with 6xHis tag came to 1.1 ratio; in assay [2], 6.4. For the same molecule, the UV-treated output CFU in assay [1] was found to be 140 CFU. In assay [3], this molecule registered a Non-UV-treated output CFU of 22 CFU.

B2: hC5a-35 phage (scFv)
scFv: DIQMTQSPSSLSASVGDRVTITCQASQDISNYLNWYQQKPGKAPKLLIYDASNLETGVPSRFSGSGSGTDFTFTIRSLQPEDIATYYCQQYDNLPPWTFGQGTKVEIKGGSSRSSSSGGGGSGGGGEVQLVESGGGLVEPGRSLRLSCTASGYTFGDYAMSWFRQAPGKDLEWVGFIRSKAYGGTTEYAASVKGRFTISRDDSKSIAYLQMNSLKTEDTAVYYCTRAGNDDQYFDYWGQGTQVTVSS
notes: also called hC5a-35scfv; hC5a-35 scfv
As for B2, the “UV-treated output CFU/Non-UV-treated output CFU” value stood at 1.1 ratio with hC5a with 6xHis tag and 3.3 ratio with Val18pBpa mutant of hC5a.
